B1: MurD (Acinetobacter baumannii ATCC 17978) (protein)
chain: MLIQRGGLKVVAGLGISGVSAVNFLHEQGYQVAVTDSRPTPPGHDQIPAGVKTSFGQLDQELLLQAEEIILSPGLAPQLPEIQAAIAKGISVVGDIQLLRRATDVPIVAITGSNAKSTVTTLIGLMAKDAGKKVAVGGNLGRPALDLLKDQPELLVLELSSFQLETTSHLNAEVAVVLNMSEDHLDRHGNMLGYHQAKHRIFQGAKKVVFNRDDALSRPLVPDTTPMQSFGLNAPDLNQYGVLRDADGTLWLACGLQRLIKSSDLYIQGMHNVANALACLALGEAIGLPMESMLETLKQFKGLEHRCEYVKTVHDVRYYNDSKGTNVGATLAAIDGLGAAIEVKKGKVALILGGQGKGQDFSPLRSSIEKYAKVVVLIGEDAPVIEQAIQGATKILHAATLKEAVELCQRETQAEDVVLLSPACASFDMFKSYNDRGQQFVACVNSLV
notes: full length, N-terminal 6xHis tag removed by TEV protease, E. coli BL21(DE3)
B2: MigC (A1S_0934) (Acinetobacter baumannii) (protein)
chain: MKLIAQKTVPTHIISGFLGAGKTTLLQHLLSQKPKDEVWAVLMNEFGQIGVDQQLLPQDQGYAVKELLGGCLCCSSQLPMHIALARLLSEQKPDRLFIEPTGLGHPSQLFDQLTEPHWQNSLAMRALVTVVDGSRLHDTNWVKQNLYEDQLKAAQIVVVSHADTMTFEDEQALVELKEEYQPYQQQWLKTEHGQLELAQIDVPARLTERSIQPLLKLQKQMTEAEVVKEIHQLPYHYVETAQGYMVAGWKFPKRWKFEFYALLDVLCAQQDWLRIKGIFNTDQGWKTFNFNPEQFNYKSGEEGIDNRIEMISQHEHDWLAFETELLACRIEQ
notes: pre-loaded with 1 equivalent Zn; UniProt ID is the one representing MigC in a homologue alignment and may be from another strain

Columns and labels:
Format in all cases: biochemical, Acinetobacter baumannii
[1] = substrate: Nc1ncnc2c1ncn2[C@@H]1O[C@H](COP(=O)(O)OP(=O)(O)OP(=O)(O)O)[C@@H](O)[C@H]1O; assay: HPLC of UMAG formation; details: 200 µM UMA, 1 mM D-glutamate, 2 mM MgCl2, 500 µM GTP, BSA added (no MigC), pH 7.4, 37 °C
[2] = substrate: Nc1ncnc2c1ncn2[C@@H]1O[C@H](COP(=O)(O)OP(=O)(O)OP(=O)(O)O)[C@@H](O)[C@H]1O; assay: malachite green phosphate release; details: Zn-bound MigC (1 equivalent Zn), 2 mM MgCl2, 150 mM KCl, pH 7.4, 37 °C
[3] = substrate: Nc1nc2c(ncn2[C@@H]2O[C@H](COP(=O)(O)OP(=O)(O)OP(=O)(O)O)[C@@H](O)[C@H]2O)c(=O)[nH]1; assay: malachite green phosphate release; details: Zn-bound MigC (1 equivalent Zn), 2 mM MgCl2, 150 mM KCl, pH 7.4, 37 °C

Protein | Km [1] [µM] | Km [2] [µM] | Km [3] [µM]
B1 | 149 ± 25 | – | –
B2 | – | 51.1 ± 12 | 110 ± 14

— PMC12208494, “The zinc metalloprotein MigC impacts cell wall biogenesis through interactions with an essential Mur ligase in Acinetobacter baumannii” (PLOS Pathogens, 2025)
